{"source": "patent US20250127942A1", "about": "(MEDICOVESTOR, published 2025)", "molecular_target": "T1, recombinant 6His-Sp17 protein (human, UniProt Q15506 1-151, limits assumed)", "T1 construct": "The species is not restated for this recombinant protein; not shown: 6His tag", "T1 sequence (looked up)": "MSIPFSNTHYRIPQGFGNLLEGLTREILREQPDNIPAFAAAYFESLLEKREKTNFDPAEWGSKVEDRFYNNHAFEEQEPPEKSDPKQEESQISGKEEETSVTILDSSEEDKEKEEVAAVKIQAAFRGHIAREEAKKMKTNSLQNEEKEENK", "test": "SPR (Biacore T200), 6His-Sp17 at 6.25-300 nM as analyte", "excerpt": "The lines correspond, from highest to lowest, to fitted cycles for 300 nanomolar, 100 nanomolar, 50 nanomolar, 25 nanomolar, 12.5 nanomolar, and 6.25 nanomolar concentrations of 6His-Sp17.\nThe nucleotide sequences encoding the VH and VL regions of Example 1 were cloned into a mouse IgG2a heavy chain gene and a mouse kappa light chain gene, respectively, and expressed in CHO—S cells to produce a mouse-human chimeric antibody, which was named chAB2. Successful generation of the antibody was confirmed by SDS-PAGE and western blotting using anti-mouse heavy and light chain antibodies and recombinant Sp17 protein (FIGS. 2 & 3). The chAB2 antibody was reactive to mouse surface Sp17 protein expressed on the mouse ovarian cancer cell line ID8 (FIG. 4).", "data": [{"binder": "mouse-human chimeric anti-Sp17 IgG2a/kappa monoclonal antibody chAB2 (antibody, V domains shown, also called anti-Sp17 antibody chAB2; chimeric monoclonal antibody (chAB2); not shown: mouse IgG2a heavy chain constant region; mouse kappa light chain constant region) VH: QVQLQQSGAEVKKPGSSVKVSCKASGGTFSSYAISWVRQAPGQGLEWMGRIIPILGIANYAQKFQGRVTITADKSTSTAYMELSSLRSEDTAVYYCARPSEEVVAAYGAFDIWGQGTTVTVSS VL: EIVLTQSPLSLPVRPGEPASISCRASQSLLRSDGFNYLDWYLQKPGQSPQLLVYLGSNRASGVPDRFSGSGSGTDFTLKISRVEAEDVGVYYCMQAVQTPYIFGQGTKLEIK", "values": [{"measurement": "Kd", "value": 2.07, "unit": "nM"}, {"measurement": "koff", "value": 0.00013, "unit": "s⁻¹"}, {"measurement": "kon", "value": 62600, "unit": "M⁻¹ s⁻¹"}]}]}
